Assay results reported in US20220017591A1 (AstraZeneca / MedImmune, published 2022).
Numbering of substitutions follows the chain as printed. Read-outs that look alike come from different tables or passages of the source.

T1: human RXFP1 (human, UniProt Q9HBX9 1-757)
T1 sequence (looked up): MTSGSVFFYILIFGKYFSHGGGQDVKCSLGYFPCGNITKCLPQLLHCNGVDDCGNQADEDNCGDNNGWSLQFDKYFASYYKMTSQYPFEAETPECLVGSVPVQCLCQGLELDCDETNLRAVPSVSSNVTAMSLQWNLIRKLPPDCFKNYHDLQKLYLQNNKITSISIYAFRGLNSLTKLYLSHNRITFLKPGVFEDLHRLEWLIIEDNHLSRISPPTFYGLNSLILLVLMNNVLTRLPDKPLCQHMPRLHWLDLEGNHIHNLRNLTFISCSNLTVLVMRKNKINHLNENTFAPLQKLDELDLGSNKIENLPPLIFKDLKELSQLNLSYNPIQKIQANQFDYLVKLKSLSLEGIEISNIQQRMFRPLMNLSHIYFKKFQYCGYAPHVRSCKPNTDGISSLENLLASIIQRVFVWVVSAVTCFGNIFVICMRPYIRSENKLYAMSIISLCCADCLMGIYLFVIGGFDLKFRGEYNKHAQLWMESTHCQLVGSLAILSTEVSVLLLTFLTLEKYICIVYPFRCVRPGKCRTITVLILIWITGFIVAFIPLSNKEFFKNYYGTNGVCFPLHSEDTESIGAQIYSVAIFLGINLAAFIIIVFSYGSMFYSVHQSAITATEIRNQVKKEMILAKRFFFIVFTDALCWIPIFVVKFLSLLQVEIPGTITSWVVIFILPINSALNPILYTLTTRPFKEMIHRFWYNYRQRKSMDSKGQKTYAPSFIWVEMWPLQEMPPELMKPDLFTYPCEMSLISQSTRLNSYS

T2: mouse RXFP1 (mouse, UniProt Q6R6I7 1-758)
T2 sequence (looked up): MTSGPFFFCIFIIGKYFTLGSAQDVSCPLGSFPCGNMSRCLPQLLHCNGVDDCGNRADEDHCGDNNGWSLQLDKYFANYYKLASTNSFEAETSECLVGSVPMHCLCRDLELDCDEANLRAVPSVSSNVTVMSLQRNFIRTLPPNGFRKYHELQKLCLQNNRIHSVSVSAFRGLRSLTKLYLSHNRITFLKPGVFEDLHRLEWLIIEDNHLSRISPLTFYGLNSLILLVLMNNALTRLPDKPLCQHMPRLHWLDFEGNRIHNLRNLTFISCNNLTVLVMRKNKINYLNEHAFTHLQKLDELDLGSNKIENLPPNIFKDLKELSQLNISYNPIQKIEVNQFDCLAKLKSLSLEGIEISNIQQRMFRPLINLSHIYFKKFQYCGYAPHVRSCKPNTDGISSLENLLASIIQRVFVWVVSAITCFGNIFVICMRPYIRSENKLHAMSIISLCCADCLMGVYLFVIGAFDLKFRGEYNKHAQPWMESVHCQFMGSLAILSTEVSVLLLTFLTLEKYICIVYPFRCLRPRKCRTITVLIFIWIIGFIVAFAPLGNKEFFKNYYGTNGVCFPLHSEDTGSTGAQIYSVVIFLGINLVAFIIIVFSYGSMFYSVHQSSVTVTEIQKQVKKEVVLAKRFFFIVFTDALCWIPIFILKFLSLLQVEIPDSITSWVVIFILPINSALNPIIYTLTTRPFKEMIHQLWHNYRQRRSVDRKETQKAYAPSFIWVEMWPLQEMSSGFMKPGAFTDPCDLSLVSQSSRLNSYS

B1: RELAX0091 (Fc fusion)
chain 1: QLYSALANKCCHVGCTKRSLARFCAAAGGGGSGGGGSGGGGSGGGGSACPPCPAPEFEGGPSVFLFPPKPKDTLMISRTPEVTCVVVDVSHEDPEVKFNWYVDGVEVHNAKTKPREEQYNSTYRVVSVLTVLHQDWLNGKEYKCKVSNKALPASIEKTISKAKGQPREPQVYTLPPCREEMTKNQVSLWCLVKGFYPSDIAVEWESNGQPENNYKTTPPVLDSDGSFFLYSKLTVDKSRWQQGNVFSCSVMHEALHNHYTQKSLSLSPG
chain 2: SWMEEVIKLCGRELVRAQIAICGMSTWSAAAGGGGSGGGGSGGGGSGGGGSACPPCPAPEFEGGPSVFLFPPKPKDTLMISRTPEVTCVVVDVSHEDPEVKFNWYVDGVEVHNAKTKPREEQYNSTYRVVSVLTVLHQDWLNGKEYKCKVSNKALPASIEKTISKAKGQPREPQVCTLPPSREEMTKNQVSLSCAVKGFYPSDIAVEWESNGQPENNYKTTPPVLDSDGSFFLVSKLTVDKSRWQQGNVFSCSVMHEALHNHYTQKSLSLSPG
B2: RELAX0052 (Fc fusion)
chain 1: DKTHTACPPCPAPEFEGGPSVFLFPPKPKDTLMISRTPEVTCVVVDVSHEDPEVKFNWYVDGVEVHNAKTKPREEQYNSTYRVVSVLTVLHQDWLNGKEYKCKVSNKALPASIEKTISKAKGQPREPQVYTLPPCREEMTKNQVSLWCLVKGFYPSDIAVEWESNGQPENNYKTTPPVLDSDGSFFLYSKLTVDKSRWQQGNVFSCSVMHEALHNHYTQKSLSLSPGGGGGSGGGGSGGGGSGGGGGSQLYSALANKCCHVGCTKESLARFC
chain 2: DKTHTCPPCPAPEFEGGPSVFLFPPKPKDTLMISRTPEVTCVVVDVSHEDPEVKFNWYVDGVEVHNAKTKPREEQYNSTYRVVSVLTVLHQDWLNGKEYKCKVSNKALPASIEKTISKAKGQPREPQVCTLPPSREEMTKNQVSLSCAVKGFYPSDIAVEWESNGQPENNYKTTPPVLDSDGSFFLVSKLTVDKSRWQQGNVFSCSVMHEALHNHYTQKSLSLSPGGGGGSGGGGSGGGGSGGGGGSSWMEEVIKLCGRELVRAQIAICGMSTWS
B3: RELAX0075 (Fc fusion)
chain 1: DKTHTCPPCPAPEFEGGPSVFLFPPKPKDTLMISRTPEVTCVVVDVSHEDPEVKFNWYVDGVEVHNAKTKPREEQYNSTYRVVSVLTVLHQDWLNGKEYKCKVSNKALPASIEKTISKAKGQPREPQVYTLPPCREEMTKNQVSLWCLVKGFYPSDIAVEWESNGQPENNYKTTPPVLDSDGSFFLYSKLTVDKSRWQQGNVFSCSVMHEALHNHYTQKSLSLSPGGGGGSGGGGSGGGGSGGGGGSQLYSALANKCCHVGCTKRSLARIC
chain 2: B2 chain 2
B4: RELAX0071 (Fc fusion)
chain 1: B3 chain 1 with R269Q, I270F
chain 2: B2 chain 2
B5: RELAX0053 (Fc fusion)
chain 1: B2 chain 1 with E266H
chain 2: B2 chain 2
B6: RELAX0074 (Fc fusion)
chain 1: B3 chain 1 with R269S, I270F
chain 2: B2 chain 2
B7: RELAX0063 (Fc fusion)
chain 1: B3 chain 1 with I270A
chain 2: B2 chain 2
B8: RELAX0072 (Fc fusion)
chain 1: B3 chain 1 with R269A, I270F
chain 2: B2 chain 2
B9: RELAX0024 (Fc fusion)
chain 1: B3 chain 1 with Y129C, C134S, W146S, L148A, Y187V, I270F
chain 2: B2 chain 2 with C129Y, S134C, S146W, A148L, V187Y
B10: RELAX0069 (Fc fusion)
chain 1: B3 chain 1 with R269M, I270F
chain 2: B2 chain 2
B11: RELAX0022 (Fc fusion)
chain 1: B2 chain 1 with D1G, K2G, T3A, H4G, T5G, C135S, W147S, L149A, Y188V, E266R
chain 2: GGAGGACPPCPAPEFEGGPSVFLFPPKPKDTLMISRTPEVTCVVVDVSHEDPEVKFNWYVDGVEVHNAKTKPREEQYNSTYRVVSVLTVLHQDWLNGKEYKCKVSNKALPASIEKTISKAKGQPREPQVYTLPPSREEMTKNQVSLWCLVKGFYPSDIAVEWESNGQPENNYKTTPPVLDSDGSFFLYSKLTVDKSRWQQGNVFSCSVMHEALHNHYTQKSLSLSPGGGGGSGGGGSGGGGSGGGGGSSWMEEVIKLCGRELVRAQIAICGMSTWS
B12: RELAX0070 (Fc fusion)
chain 1: B3 chain 1 with R269I, I270F
chain 2: B2 chain 2
B13: RELAX0073 (Fc fusion)
chain 1: B3 chain 1 with R269Y, I270F
chain 2: B2 chain 2
B14: RELAX0020 (Fc fusion)
chain 1: B11 chain 2 with S135C
chain 2: GGAGGACPPCPAPEFEGGPSVFLFPPKPKDTLMISRTPEVTCVVVDVSHEDPEVKFNWYVDGVEVHNAKTKPREEQYNSTYRVVSVLTVLHQDWLNGKEYKCKVSNKALPASIEKTISKAKGQPREPQVCTLPPSREEMTKNQVSLSCAVKGFYPSDIAVEWESNGQPENNYKTTPPVLDSDGSFFLVSKLTVDKSRWQQGNVFSCSVMHEALHNHYTQKSLSLSPGGGGGSGGGGSGGGGSGGGGGSQLYSALANKCCHVGCTKRSLARFC

Columns and labels:
Assay in all cases: cell-based or functional assay
[1] = target: T1, human RXFP1
[2] = target: T2, mouse RXFP1
[3] = target: T3, human RXFP2 (human, UniProt Q8WXD0 1-754)
T3 sequence (Q8WXD0 whole entry): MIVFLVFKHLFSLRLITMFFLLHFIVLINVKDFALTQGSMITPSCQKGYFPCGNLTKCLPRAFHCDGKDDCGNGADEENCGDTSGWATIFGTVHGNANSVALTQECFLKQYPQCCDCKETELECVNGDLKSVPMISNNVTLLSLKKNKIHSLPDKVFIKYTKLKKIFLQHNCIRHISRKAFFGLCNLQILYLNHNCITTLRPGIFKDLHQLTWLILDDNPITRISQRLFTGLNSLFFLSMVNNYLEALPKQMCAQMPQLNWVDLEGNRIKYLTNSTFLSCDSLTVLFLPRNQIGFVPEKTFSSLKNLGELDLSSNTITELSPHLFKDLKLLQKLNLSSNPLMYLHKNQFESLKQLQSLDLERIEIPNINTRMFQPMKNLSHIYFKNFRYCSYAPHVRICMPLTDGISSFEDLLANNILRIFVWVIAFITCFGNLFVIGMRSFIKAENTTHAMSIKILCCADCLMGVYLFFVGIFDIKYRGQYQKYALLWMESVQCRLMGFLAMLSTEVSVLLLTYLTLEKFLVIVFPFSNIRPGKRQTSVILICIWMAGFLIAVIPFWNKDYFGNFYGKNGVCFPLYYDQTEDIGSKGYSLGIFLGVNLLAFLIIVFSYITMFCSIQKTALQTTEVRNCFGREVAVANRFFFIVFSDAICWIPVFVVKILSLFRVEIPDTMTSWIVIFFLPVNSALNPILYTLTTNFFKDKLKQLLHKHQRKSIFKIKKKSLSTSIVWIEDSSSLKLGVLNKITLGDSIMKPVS

[4] = target: T1, human RXFP1; remark: listed apart in the source
[5] = target: T2, mouse RXFP1; remark: listed apart in the source
[6] = target: T3, human RXFP2; remark: listed apart in the source

Binder | EC50 hRXFP1 (M), cAMP assay [1] | EC50 mRXFP1 (M), cAMP assay [2] | EC50 hRXFP2 (M), cAMP assay [3] | EC50 hRXFP1 (M), cAMP assay [4] | EC50 mRXFP1 (M), cAMP assay [5] | EC50 hRXFP2 (M), cAMP assay [6]
B1 | 5.88e-11 M | 2.88e-11 M | > 1.09e-07 M |  |  | 
B2 |  |  |  | 9.67e-11 M | 5.69e-11 M | 1.05e-07 M
B3 |  |  |  | 9.47e-11 M | 6.14e-11 M | > 1.43e-07 M
B4 |  |  |  | 6.87e-11 M | 3.93e-11 M | 1.15e-07 M
B5 |  |  |  | 7.15e-11 M | 4.36e-11 M | > 1.79e-07 M
B6 |  |  |  | 5.45e-11 M | 4.53e-11 M | 9.21e-08 M
B7 |  |  |  | 1.96e-10 M | 4.46e-11 M | > 1.38e-07 M
B8 |  |  |  | 8.53e-11 M | 4.03e-11 M | > 2.3e-07 M
B9 | 4.6e-11 M | 1.56e-11 M | 4.26e-08 M |  |  | 
B10 |  |  |  | 5.76e-11 M | 3.69e-11 M | > 1.62e-07 M
B11 | 4.74e-11 M | 3.28e-11 M |  |  |  | 
B12 |  |  |  | 6.67e-11 M | 5.02e-11 M | 1.07e-07 M
B13 |  |  |  | 5.7e-11 M | 4.15e-11 M | 8.63e-08 M
B14 | 4.41e-11 M | 2.79e-11 M | 3.54e-08 M |  |  | 
